Bridge positions count the residues as written; N and C are the ends. Square brackets hold non-standard residues; d marks the D form. S5 = C=CCCC[C@](C)(N)C(=O)O; Nle = CCCC[C@H](N)C(=O)O
Each binder was assayed against T1, His6-tagged p300 (AA 323-423) (UniProt Q09472 323-423) (assay: TR-FRET HIF1a/p300 displacement; grade = IC50 >700 nM).
T1 construct: range 323-423; also called p300-CH; not shown: His6 tag
Description: The ability of peptides to displace HIF1α c-terminal trans-activation domain from p300-CH was measured by a TR FRET assay. […] The complex was diluted to 300 nM final in complete assay media and competitor peptides were added. The complete assay media contained 150 mM NaCl (Sigma +S5150 or equivalent), 20 mM HEPES pH 7.4 (Boston Bioproducts, Ashland, Mass.; #BB-2076), 7.5 mM CHAPS (Thermo #28300 or equivalent), and 1 mM DTT. Protein and peptide were incubated at room temperature for 1 hour before the addition of anti-Flag-K and anti-6×HIS-D2 (CisBio, Bedford Mass.) HTRF reconstitution buffer (50 mM Phosphate pH 7, 0.8 Potassium Flouride, BSA 0.2%)¹ to a final concentration of 0.5 μM and 4 nM respectively. The reaction continued for an additional two hours at room temperature. The reaction was read on a TECAN F500 plate reader with settings recommended by CisBio. The ratio of donor to acceptor fluorescence was calculated. The resulting data was analyzed with Graphpad Prism 5.0. IC50 values were calculated for both proteins using the One Site Fit-LogIC50 equation and presented in the column “IC₅₀ (nM) (HIF1α_p300 Displacement+CHAPS)” of Table 6. ¹ Cisbio USA, Bedford, Mass.; 61HISDLB (lot 007A), 61FG2KLB (024A), HTRF Buffer (62RB3RDF)

T1 sequence (Q09472 323-423 limits assumed): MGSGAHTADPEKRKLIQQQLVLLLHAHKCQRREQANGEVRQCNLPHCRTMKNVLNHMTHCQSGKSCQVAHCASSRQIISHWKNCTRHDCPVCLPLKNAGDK

Row | Binder | IC50 [nM]
1 | Ac-FIDEEVL[Nle][S5]LVI[S5]EALDRI-NH2 (staple 9-13; SMILES CCCC[C@H](NC(=O)[C@H](CC(C)C)NC(=O)[C@@H](NC(=O)[C@H](CCC(=O)O)NC(=O)[C@H](CCC(=O)O)NC(=O)[C@H](CC(=O)O)NC(=O)[C@@H](NC(=O)[C@H](Cc1ccccc1)NC(C)=O)[C@@H](C)CC)C(C)C)C(=O)N[C@@]1(C)CCCC=CCCC[C@@](C)(C(=O)N[C@@H](CCC(=O)O)C(=O)N[C@@H](C)C(=O)N[C@@H](CC(C)C)C(=O)N[C@@H](CC(=O)O)C(=O)N[C@@H](CCCNC(=N)N)C(=O)N[C@H](C(N)=O)[C@@H](C)CC)NC(=O)[C@H]([C@@H](C)CC)NC(=O)[C@H](C(C)C)NC(=O)[C@H](CC(C)C)NC1=O) [SP-38] | > 700
2 | Ac-FIDEEVL[Nle][S5]LVI[S5][Nle]ELDRI-NH2 (staple 9-13; SMILES CCCC[C@H](NC(=O)[C@H](CC(C)C)NC(=O)[C@@H](NC(=O)[C@H](CCC(=O)O)NC(=O)[C@H](CCC(=O)O)NC(=O)[C@H](CC(=O)O)NC(=O)[C@@H](NC(=O)[C@H](Cc1ccccc1)NC(C)=O)[C@@H](C)CC)C(C)C)C(=O)N[C@@]1(C)CCCC=CCCC[C@@](C)(C(=O)N[C@@H](CCCC)C(=O)N[C@@H](CCC(=O)O)C(=O)N[C@@H](CC(C)C)C(=O)N[C@@H](CC(=O)O)C(=O)N[C@@H](CCCNC(=N)N)C(=O)N[C@H](C(N)=O)[C@@H](C)CC)NC(=O)[C@H]([C@@H](C)CC)NC(=O)[C@H](C(C)C)NC(=O)[C@H](CC(C)C)NC1=O) [SP-39] | > 700
3 | Ac-DFIDEEVL[Nle][S5]LVI[S5][Nle]ALDRI-NH2 (staple 10-14; SMILES CCCC[C@H](NC(=O)[C@H](CC(C)C)NC(=O)[C@@H](NC(=O)[C@H](CCC(=O)O)NC(=O)[C@H](CCC(=O)O)NC(=O)[C@H](CC(=O)O)NC(=O)[C@@H](NC(=O)[C@H](Cc1ccccc1)NC(=O)[C@H](CC(=O)O)NC(C)=O)[C@@H](C)CC)C(C)C)C(=O)N[C@@]1(C)CCCC=CCCC[C@@](C)(C(=O)N[C@@H](CCCC)C(=O)N[C@@H](C)C(=O)N[C@@H](CC(C)C)C(=O)N[C@@H](CC(=O)O)C(=O)N[C@@H](CCCNC(=N)N)C(=O)N[C@H](C(N)=O)[C@@H](C)CC)NC(=O)[C@H]([C@@H](C)CC)NC(=O)[C@H](C(C)C)NC(=O)[C@H](CC(C)C)NC1=O) [SP-29] | > 700
4 | Ac-FIDEEVL[Nle][S5]LVI[S5][Nle]ALDRE-NH2 (staple 9-13; SMILES CCCC[C@H](NC(=O)[C@H](CC(C)C)NC(=O)[C@@H](NC(=O)[C@H](CCC(=O)O)NC(=O)[C@H](CCC(=O)O)NC(=O)[C@H](CC(=O)O)NC(=O)[C@@H](NC(=O)[C@H](Cc1ccccc1)NC(C)=O)[C@@H](C)CC)C(C)C)C(=O)N[C@@]1(C)CCCC=CCCC[C@@](C)(C(=O)N[C@@H](CCCC)C(=O)N[C@@H](C)C(=O)N[C@@H](CC(C)C)C(=O)N[C@@H](CC(=O)O)C(=O)N[C@@H](CCCNC(=N)N)C(=O)N[C@@H](CCC(=O)O)C(N)=O)NC(=O)[C@H]([C@@H](C)CC)NC(=O)[C@H](C(C)C)NC(=O)[C@H](CC(C)C)NC1=O) [SP-42] | > 700
5 | Ac-FIDEEVLA[S5]LVI[S5]AALDR-NH2 (staple 9-13; SMILES CC[C@H](C)[C@H](NC(=O)[C@H](Cc1ccccc1)NC(C)=O)C(=O)N[C@@H](CC(=O)O)C(=O)N[C@@H](CCC(=O)O)C(=O)N[C@@H](CCC(=O)O)C(=O)N[C@H](C(=O)N[C@@H](CC(C)C)C(=O)N[C@@H](C)C(=O)N[C@@]1(C)CCCC=CCCC[C@@](C)(C(=O)N[C@@H](C)C(=O)N[C@@H](C)C(=O)N[C@@H](CC(C)C)C(=O)N[C@@H](CC(=O)O)C(=O)N[C@@H](CCCNC(=N)N)C(N)=O)NC(=O)[C@H]([C@@H](C)CC)NC(=O)[C@H](C(C)C)NC(=O)[C@H](CC(C)C)NC1=O)C(C)C) [SP-28] | > 700

Second part, the binder after the results:

Row | IC50 [nM] | Binder
6 | > 700 | Ac-LLQ[S5]EEL[S5]RALDQVNIDE[S5]VL[Nle][S5]LVIE[Nle]G-NH2 (staple 19-23, 4-8; SMILES CCCC[C@H](NC(=O)[C@H](CCC(=O)O)NC(=O)[C@@H](NC(=O)[C@@H](NC(=O)[C@H](CC(C)C)NC(=O)[C@]1(C)CCCC=CCCC[C@](C)(NC(=O)[C@H](CCC(=O)O)NC(=O)[C@H](CC(=O)O)NC(=O)[C@@H](NC(=O)[C@H](CC(N)=O)NC(=O)[C@@H](NC(=O)[C@H](CCC(N)=O)NC(=O)[C@H](CC(=O)O)NC(=O)[C@H](CC(C)C)NC(=O)[C@H](C)NC(=O)[C@H](CCCNC(=N)N)NC(=O)[C@]2(C)CCCC=CCCC[C@](C)(NC(=O)[C@H](CCC(N)=O)NC(=O)[C@H](CC(C)C)NC(=O)[C@H](CC(C)C)NC(C)=O)C(=O)N[C@@H](CCC(=O)O)C(=O)N[C@@H](CCC(=O)O)C(=O)N[C@@H](CC(C)C)C(=O)N2)C(C)C)[C@@H](C)CC)C(=O)N[C@@H](C(C)C)C(=O)N[C@@H](CC(C)C)C(=O)N[C@@H](CCCC)C(=O)N1)C(C)C)[C@@H](C)CC)C(=O)NCC(N)=O) [SP-325]
7 | > 700 | Ac-SIDEEVL[Nle][S5]LVI[S5][Nle]ALDRI-NH2 (staple 9-13; SMILES CCCC[C@H](NC(=O)[C@H](CC(C)C)NC(=O)[C@@H](NC(=O)[C@H](CCC(=O)O)NC(=O)[C@H](CCC(=O)O)NC(=O)[C@H](CC(=O)O)NC(=O)[C@@H](NC(=O)[C@H](CO)NC(C)=O)[C@@H](C)CC)C(C)C)C(=O)N[C@@]1(C)CCCC=CCCC[C@@](C)(C(=O)N[C@@H](CCCC)C(=O)N[C@@H](C)C(=O)N[C@@H](CC(C)C)C(=O)N[C@@H](CC(=O)O)C(=O)N[C@@H](CCCNC(=N)N)C(=O)N[C@H](C(N)=O)[C@@H](C)CC)NC(=O)[C@H]([C@@H](C)CC)NC(=O)[C@H](C(C)C)NC(=O)[C@H](CC(C)C)NC1=O) [SP-44]
8 | > 700 | Ac-FIAEXVL[Nle]SLVXA[Nle]AL-NH2 (staple 5-12; not fully specified (residues 5, 12); printed as Ac-FIAE-$r8-VL-Nle-SLV-$-A-Nle-AL-NH2) [SP-198]
9 | > 700 | Ac-FIDQAVF[Nle][S5]LVI[S5][Nle]ALL-NH2 (staple 9-13; SMILES CCCC[C@H](NC(=O)[C@H](Cc1ccccc1)NC(=O)[C@@H](NC(=O)[C@H](C)NC(=O)[C@H](CCC(N)=O)NC(=O)[C@H](CC(=O)O)NC(=O)[C@@H](NC(=O)[C@H](Cc1ccccc1)NC(C)=O)[C@@H](C)CC)C(C)C)C(=O)N[C@@]1(C)CCCC=CCCC[C@@](C)(C(=O)N[C@@H](CCCC)C(=O)N[C@@H](C)C(=O)N[C@@H](CC(C)C)C(=O)N[C@@H](CC(C)C)C(N)=O)NC(=O)[C@H]([C@@H](C)CC)NC(=O)[C@H](C(C)C)NC(=O)[C@H](CC(C)C)NC1=O) [SP-250]
